# Data published in patent US20150119475.
# B1: recombinant Akt1 (ProQinase GmbH) (protein)
# chain: VADGLKKQEEEEMDFRSGSPSDNSGAEEMEVSLAKPKHRVTMNEFEYLKLLGKGTFGKVILVKEKATGRYYAMKILKKEVIVAKDEVAHTLTENRVLQNSRHPFLTALKYSFQTHDRLCFVMEYANGGELFFHLSRERVFSEDRARFYGAEIVSALDYLHSEKNVVYRDLKLENLMLDKDGHIKITDFGLCKEGIKDGATMKTFCGTPEYLAPEVLEDNDYGRAVDWWGLGVVMYEMMCGRLPFYNQDHEKLFELILMEEIRFPRTLGPEAKSLLSGLLKKDPKQRLGGGSEDAKEIMQHRFFAGIVWQHVYEKKLSPPFKPQVTSETDTRYFDEEFTAQMITITPPDQDDSMECVDSERRPHFPQFSYSASGTA
# Molecular target: Snail protein (SNAI1/Snail, expressed as GST fusion in E. coli, GST moiety cleaved with thrombin), O95863
# Sequence (O95863 whole entry, the tested form may be a part): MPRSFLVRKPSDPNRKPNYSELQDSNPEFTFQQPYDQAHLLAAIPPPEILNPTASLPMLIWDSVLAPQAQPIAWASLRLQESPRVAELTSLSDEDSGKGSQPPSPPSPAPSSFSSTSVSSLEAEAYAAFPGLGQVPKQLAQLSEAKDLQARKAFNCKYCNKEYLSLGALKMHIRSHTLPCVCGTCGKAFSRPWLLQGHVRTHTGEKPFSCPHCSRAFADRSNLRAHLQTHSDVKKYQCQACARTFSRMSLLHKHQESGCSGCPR
protein,measurement,value
B1,"in vitro kinase assay with 32P-ATP, detected by autoradiography",Akt1 and Akt3 kinases are able to directly phosphorylate Snail protein
